Assay results from patent US20220010008A1 (SHANGHAI PHARMAEXPLORER, published 2022).

Key:
mouse IL-5 [1] = target: T1, mouse IL-5 (mouse, UniProt P04401 21-133); experiment: ELISA on mouse IL-5; antibody 0.0002 nM
T1 construct: Source and construct of the mouse IL-5 are not described; also called mouse IL-5 protein
T1 sequence (looked up): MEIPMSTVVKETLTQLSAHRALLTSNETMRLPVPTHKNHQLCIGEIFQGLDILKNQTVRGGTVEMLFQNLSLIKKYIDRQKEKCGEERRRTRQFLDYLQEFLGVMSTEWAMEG
Description: (§1) The titer of antibody reacting with human IL-5 protein and the cross reaction with mouse and monkey IL-5 protein were detected and analyzed by enzyme-linked immunosorbent assay (ELISA). Streptavidin was diluted with PBS to a final concentration of 1.0 μg/ml, and then added to a 96-well enzyme-labeled plate as 100 microliters per well. The plate was incubated at 4° C. overnight. On the second day, the plate was washed twice with washing solution (PBS+0.01% Tween20). The blocking solution (PBS+0.05% Tween20+2% BSA) was added for blocking at 37° C. for 1-2 hours. Then the blocking solution was discarded. The biotin-labeled human IL-5 was diluted with sample diluent (PBS+0.05% Tween20+0.2% BSA) to 0.5 μg/ml, and added to an enzyme-labeled plate at 50-100 microliters per well, and incubated at 37° C. for 1 hour. The plate was washed with plate washing solution (PBS+0.05% Tween 20) for 2-3 times. 50-100 microliters of antibody samples to be tested were added to each well, and incubated at 37° C. for 1 hour. Then the plate was washed with plate washing solution (PBS+0.05% Tween20) for 2-3 times. The horseradish peroxidase labeled secondary antibody against human or mouse IgG was added, and reacted at 37° C. for 1 hour. The plate was washed with plate washing solution (PBS+0.05% Tween 20) for 2-3 times. […] The value of O.D. 450 nm was read by ELISA plate reader (SpectraMax M5e, Molecular Device).

[2] = target: recombinant human IL-5 protein with His tag (human, UniProt P05113 20-134, limits assumed, biotin-labeled in the ELISA and in the receptor blocking assay (site not stated)); experiment: cell-based or functional assay
mouse IL-5 [3] = target: T2, mouse IL-5 (mouse, UniProt P04401 21-133); experiment: ELISA, mouse IL-5, Ab 0.0043 nM
T2 sequence (looked up): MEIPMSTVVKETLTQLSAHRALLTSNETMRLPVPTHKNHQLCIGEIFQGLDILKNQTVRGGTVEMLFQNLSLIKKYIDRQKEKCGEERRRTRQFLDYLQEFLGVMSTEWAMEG
Description: as §1, with “times.” for “times. The horseradish peroxidase labeled secondary antibody against human or mouse IgG was added, and reacted at 37° C. for 1 hour. The plate was washed with plate washing solution (PBS+0.05% Tween 20) for 2-3 times.”
(§2) The titer of chimeric antibody reacting with human IL-5 protein and the cross reaction with mouse and monkey IL-5 protein were detected and analyzed by enzyme-linked immunosorbent assay (ELISA). […]

mouse IL-5 [4] = target: T2, mouse IL-5; experiment: ELISA, mouse IL-5, Ab 0.0002 nM
Description: as §1, with “times.” for “times. The horseradish peroxidase labeled secondary antibody against human or mouse IgG was added, and reacted at 37° C. for 1 hour. The plate was washed with plate washing solution (PBS+0.05% Tween 20) for 2-3 times.”
as §2

[5] = target: recombinant human IL-5 protein (human, UniProt P05113 20-134, limits assumed); experiment: cell-based or functional assay
recombinant monkey IL-5 [6] = target: T3, recombinant monkey IL-5 (monkey (cynomolgus macaques)); experiment: ELISA, monkey IL-5, Ab 0.0002 nM
Description: as §1, with “times.” for “times. The horseradish peroxidase labeled secondary antibody against human or mouse IgG was added, and reacted at 37° C. for 1 hour. The plate was washed with plate washing solution (PBS+0.05% Tween 20) for 2-3 times.”
as §2

recombinant monkey IL-5 [7] = target: T3, recombinant monkey IL-5; experiment: ELISA, monkey IL-5, Ab 0.0043 nM
Description: as §1, with “times.” for “times. The horseradish peroxidase labeled secondary antibody against human or mouse IgG was added, and reacted at 37° C. for 1 hour. The plate was washed with plate washing solution (PBS+0.05% Tween 20) for 2-3 times.”
as §2

B1: 69F2F3 (murine hybridoma antibody) (antibody, V domains shown)
VH: QVQLKQSGPGLVQPSQSLSITCTVSGFSLSNYGVHWVRQSPGKGLEWLGVIWSGGSTDYNAAFKSRLSITKDNSKSQVVFRMNSLQTDDTATYYCARNKDFLDYWGQGTKFTVSS
VL: DIVMTQSPSSLTVTAGEKVTMTCKSSQGLLNSGNQKNYLTWYQQKPGQPPKLLIYWASTRESGVPDRFTGSGSGTDFTLTISSVQAEDLAVYYCQNDYHFPLTFGAGTKLELK
notes: Mouse monoclonal antibody from hybridoma, purified on Protein G; also called lead antibody; antibody number 3
**Q.** B1 was tested. Which OD450 nm (mouse IL-5 [1]) did it give?
**A.** 0.049

B2: 102A2E11B6 (as tested in Example 9, format not stated) (antibody, V domains shown)
VH: QVQLRQSGPGLVQPSQSLSITCTVSGFSLTSYGVHWVRQSPGKGLEWLGVIWSGGSTDYNAVFMSRLSISKDSSKSQVFFKMNSLQTDDTAIYYCARNRYVLDYWGQGTSVTVSS
VL: DIVMTQSPSSLSVSAGERVTMRCKSSQSLLTSGDQKNHLAWYQQKPGQPPKLLIYGASTRESGVPDRFTGSGSGTDFTLTITSVQAEDLAVYYCQNDHSFPLTFGAGTKLELK
**Q.** For B2, which “TF1 (IC50), TF1 proliferation induced by IL-5” value (“TF1 (IC50)” below) [2] is on record?
**A.** ~1 pM

B3: 102A2E11B6 mouse-human chimeric antibody (antibody, V domains shown)
VH: QVQLRQSGPGLVQPSQSLSITCTVSGFSLTSYGVHWVRQSPGKGLEWLGVIWSGGSTDYNAVFMSRLSISKDSSKSQVFFKMNSLQTDDTAIYYCARNRYVLDYWGQGTSVTVSS
VL: DIVMTQSPSSLSVSAGERVTMRCKSSQSLLTSGDQKNHLAWYQQKPGQPPKLLIYGASTRESGVPDRFTGSGSGTDFTLTITSVQAEDLAVYYCQNDHSFPLTFGAGTKLELK
**Q.** What does the source list for B3?
**A.** OD450 nm (mouse IL-5 [3]): 0.069 OD450 nm; OD450 nm (mouse IL-5 [4]): 0.046 OD450 nm

B4: 147D7H2 (as tested in Example 9, format not stated) (antibody, V domains shown)
VH: EVQLQQSGAELVKPGASVKLSCTASGFNIKDYFIHWVKQRTEQGLEWIGRIDTEDGETKYAPKFQGKATITIDTSSNTAYLYFSSLTSEDTAMYYCARYGNYVAMDYWGQGTSVTVSS
VL: QIVLTQSPALMSASPGEKVTMTCSASSSVSYMFWYQQKPSSSPKPWIYLTSKLASGVPARFSGSGSGTSYSLTISSVEAEDAATYYCQQWNSNPYTFGGGTKLEIK
**Q.** With B4 as the binder, how does the “TF1 (IC50)” value [2] read?
**A.** ~1 pM

B5: 151G3B11 (as tested in Example 9, format not stated) (antibody, V domains shown)
VH: EVHLQQSGAELVKPGASVKLSCTASGFNIKDYYMHWVKQRTEQGLEWIGRIDPEDGETKYAPKFQGQATITADTSSNTANLQLSSLTSEDTAVYYCARYGNFPDYWGPGTTLTVSS
VL: QIVLTQSPALMSASPGEKVTMTCSASSSVSYMYWYQQKPRSSPKPWIYLTSKLASGVPARFSGSGSGTSYSLTISSMEAEDAATYYCQQWNSNPYTFGGGTKLEIK
**Q.** B5 was tested. Which “TF1 (IC50)” value [2] did it give?
**A.** ~1 pM

B6: 147D7H2 (as tested in Example 9; murine or chimeric form not stated) (antibody, V domains shown)
VH: EVQLQQSGAELVKPGASVKLSCTASGFNIKDYFIHWVKQRTEQGLEWIGRIDTEDGETKYAPKFQGKATITIDTSSNTAYLYFSSLTSEDTAMYYCARYGNYVAMDYWGQGTSVTVSS
VL: QIVLTQSPALMSASPGEKVTMTCSASSSVSYMFWYQQKPSSSPKPWIYLTSKLASGVPARFSGSGSGTSYSLTISSVEAEDAATYYCQQWNSNPYTFGGGTKLEIK
**Q.** B6 was tested. Which “TF1 (IC50, nM)” value [5] did it give?
**A.** 0.002 nM

B7: 147D7H2 mouse-human chimeric antibody (antibody, V domains shown)
VH: EVQLQQSGAELVKPGASVKLSCTASGFNIKDYFIHWVKQRTEQGLEWIGRIDTEDGETKYAPKFQGKATITIDTSSNTAYLYFSSLTSEDTAMYYCARYGNYVAMDYWGQGTSVTVSS
VL: QIVLTQSPALMSASPGEKVTMTCSASSSVSYMFWYQQKPSSSPKPWIYLTSKLASGVPARFSGSGSGTSYSLTISSVEAEDAATYYCQQWNSNPYTFGGGTKLEIK
**Q.** How did the OD450 nm (recombinant monkey IL-5 [6]) turn out when B7 was run?
**A.** 0.093 OD450 nm

**Q.** What about the OD450 nm (recombinant monkey IL-5 [7]) of the same binder?
**A.** 0.092 OD450 nm
